Blank lines part the entries; values can stand above or below the substance they belong to.
Experiments:
Assay in all cases: cell-based or functional assay
[1] = molecular target: IL10Rb (CRF2-4) (human) (UniProt Q08334)
[2] = molecular target: human zcytor19 (human)
[3] = molecular target: zcytoR19 and IL10Rb (CRF2-4) coexpressed on BHK cells (human)

Chain of IL10Rb (CRF2-4) (human) (Q08334 20-325 limits assumed, form in doubt): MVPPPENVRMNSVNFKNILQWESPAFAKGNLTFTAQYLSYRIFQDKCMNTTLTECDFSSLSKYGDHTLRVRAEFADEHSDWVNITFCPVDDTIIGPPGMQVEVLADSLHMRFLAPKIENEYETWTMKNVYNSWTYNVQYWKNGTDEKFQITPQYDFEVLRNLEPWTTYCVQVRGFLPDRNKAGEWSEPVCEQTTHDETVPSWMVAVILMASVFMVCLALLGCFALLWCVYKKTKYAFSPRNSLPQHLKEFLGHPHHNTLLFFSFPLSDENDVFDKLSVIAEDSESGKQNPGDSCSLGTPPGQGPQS

Optical Density (570nm), MTT, EMCV-infected HuzcytoR19-overexpressing 293 cells; Zcyto20-CEE 0.5 ng/ml; Anti-IL10Rb 5 ug/ml [1]: 0.95 OD 570nm | Optical Density (570nm), MTT, EMCV-infected HuzcytoR19-overexpressing 293 cells; Zcyto20-CEE 0.5 ng/ml; Anti-LeptinR 5 ug/ml (control antibody) [1]: 0.24 OD 570nm | Optical Density (570nm), MTT, EMCV-infected wild-type 293 cells; Zcyto20-CEE 200 ng/ml; Anti-IL10Rb 5 ug/ml [1]: 0.94 OD 570nm | Optical Density (570nm), MTT, EMCV-infected wild-type 293 cells; Zcyto20-CEE 200 ng/ml; Anti-LeptinR 5 ug/ml (control antibody) [1]: 0.88 OD 570nm
Substance: zcyto20-CEE (ligand)

ISRE-luciferase fold induction; 293 cells transfected with ISRE-Luc./Zcytor19; Zcyto21 125ng/ml (fold induction) [2]: 108 | ISRE-luciferase fold induction; BHK cells transfected with zcytoR19 alone; zcyto21 0.001 ng/ml (fold induction) [2]: 1.3 | ISRE-luciferase fold induction; BHK cells transfected with zcytoR19 alone; zcyto21 0.01 ng/ml (fold induction) [2]: 1.4 | ISRE-luciferase fold induction; BHK cells transfected with zcytoR19 alone; zcyto21 0.1 ng/ml (fold induction) [2]: 1.4 | ISRE-luciferase fold induction; BHK cells transfected with zcytoR19 alone; zcyto21 1 ng/ml (fold induction) [2]: 2 | ISRE-luciferase fold induction; BHK cells transfected with zcytoR19 alone; zcyto21 10 ng/ml (fold induction) [2]: 2.4 | ISRE-luciferase fold induction; BHK cells transfected with zcytoR19 alone; zcyto21 100 ng/ml (fold induction) [2]: 2.6 | ISRE-luciferase fold induction; BHK cells transfected with zcytoR19 alone; zcyto21 1000 ng/ml (fold induction) [2]: 3.3 | ISRE-luciferase fold induction; wild-type 293 cells; Zcyto21 0.001 ng/ml; + IL10Rb neutralizing antibody (2.5 ug/ml) (fold induction) [1]: 1.3 | ISRE-luciferase fold induction; wild-type 293 cells; Zcyto21 0.001 ng/ml; no antibody (fold induction) [1]: 1.2 | ISRE-luciferase fold induction; wild-type 293 cells; Zcyto21 0.01 ng/ml; + IL10Rb neutralizing antibody (2.5 ug/ml) (fold induction) [1]: 1.3 | ISRE-luciferase fold induction; wild-type 293 cells; Zcyto21 0.01 ng/ml; no antibody (fold induction) [1]: 1.2 | ISRE-luciferase fold induction; wild-type 293 cells; Zcyto21 0.1 ng/ml; + IL10Rb neutralizing antibody (2.5 ug/ml) (fold induction) [1]: 1.3 | ISRE-luciferase fold induction; wild-type 293 cells; Zcyto21 0.1 ng/ml; no antibody (fold induction) [1]: 1.1 | ISRE-luciferase fold induction; wild-type 293 cells; Zcyto21 1 ng/ml; + IL10Rb neutralizing antibody (2.5 ug/ml) (fold induction) [1]: 1.3 | ISRE-luciferase fold induction; wild-type 293 cells; Zcyto21 1 ng/ml; no antibody (fold induction) [1]: 1.5 | ISRE-luciferase fold induction; wild-type 293 cells; Zcyto21 10 ng/ml; + IL10Rb neutralizing antibody (2.5 ug/ml) (fold induction) [1]: 1.4 | ISRE-luciferase fold induction; wild-type 293 cells; Zcyto21 10 ng/ml; no antibody (fold induction) [1]: 3.2 | ISRE-luciferase fold induction; wild-type 293 cells; Zcyto21 100 ng/ml; + IL10Rb neutralizing antibody (2.5 ug/ml) (fold induction) [1]: 1.8 | ISRE-luciferase fold induction; wild-type 293 cells; Zcyto21 100 ng/ml; no antibody (fold induction) [1]: 4.1 | ISRE-luciferase fold induction; zcytoR19-overexpressing 293 cells; Zcyto21 0.001 ng/ml; + IL10Rb neutralizing antibody (2.5 ug/ml) (fold induction) [1]: 1 | ISRE-luciferase fold induction; zcytoR19-overexpressing 293 cells; Zcyto21 0.001 ng/ml; no antibody (fold induction) [1]: 1.1 | ISRE-luciferase fold induction; zcytoR19-overexpressing 293 cells; Zcyto21 0.01 ng/ml; + IL10Rb neutralizing antibody (2.5 ug/ml) (fold induction) [1]: 1.1 | ISRE-luciferase fold induction; zcytoR19-overexpressing 293 cells; Zcyto21 0.01 ng/ml; no antibody (fold induction) [1]: 3.5 | ISRE-luciferase fold induction; zcytoR19-overexpressing 293 cells; Zcyto21 0.1 ng/ml; + IL10Rb neutralizing antibody (2.5 ug/ml) (fold induction) [1]: 1 | ISRE-luciferase fold induction; zcytoR19-overexpressing 293 cells; Zcyto21 0.1 ng/ml; no antibody (fold induction) [1]: 1.5 | ISRE-luciferase fold induction; zcytoR19-overexpressing 293 cells; Zcyto21 1 ng/ml; + IL10Rb neutralizing antibody (2.5 ug/ml) (fold induction) [1]: 5.8 | ISRE-luciferase fold induction; zcytoR19-overexpressing 293 cells; Zcyto21 1 ng/ml; no antibody (fold induction) [1]: 35 | ISRE-luciferase fold induction; zcytoR19-overexpressing 293 cells; Zcyto21 10 ng/ml; + IL10Rb neutralizing antibody (2.5 ug/ml) (fold induction) [1]: 28 | ISRE-luciferase fold induction; zcytoR19-overexpressing 293 cells; Zcyto21 10 ng/ml; no antibody (fold induction) [1]: 48 | ISRE-luciferase fold induction; zcytoR19-overexpressing 293 cells; Zcyto21 100 ng/ml; + IL10Rb neutralizing antibody (2.5 ug/ml) (fold induction) [1]: 31 | ISRE-luciferase fold induction; zcytoR19-overexpressing 293 cells; Zcyto21 100 ng/ml; no antibody (fold induction) [1]: 45 | ISRE-luciferase fold induction; BHK cells transfected with zcytoR19 and IL10Rb (CRF2-4); zcyto21 0.001 ng/ml (fold induction) [3]: 1.3 | ISRE-luciferase fold induction; BHK cells transfected with zcytoR19 and IL10Rb (CRF2-4); zcyto21 0.01 ng/ml (fold induction) [3]: 1.6 | ISRE-luciferase fold induction; BHK cells transfected with zcytoR19 and IL10Rb (CRF2-4); zcyto21 0.1 ng/ml (fold induction) [3]: 2.2 | ISRE-luciferase fold induction; BHK cells transfected with zcytoR19 and IL10Rb (CRF2-4); zcyto21 1 ng/ml (fold induction) [3]: 2.5 | ISRE-luciferase fold induction; BHK cells transfected with zcytoR19 and IL10Rb (CRF2-4); zcyto21 10 ng/ml (fold induction) [3]: 2.6 | ISRE-luciferase fold induction; BHK cells transfected with zcytoR19 and IL10Rb (CRF2-4); zcyto21 100 ng/ml (fold induction) [3]: 2.5 | ISRE-luciferase fold induction; BHK cells transfected with zcytoR19 and IL10Rb (CRF2-4); zcyto21 1000 ng/ml (fold induction) [3]: 2.2
Substance: zcyto21 (from UniProt Q8IU54 20-200) (ligand)

ISRE-luciferase fold induction; 293 cells transfected with ISRE-Luc./Zcytor19; Zcyto22 125ng/ml (fold induction) [2]: 104 | ISRE-luciferase fold induction; BHK cells transfected with zcytoR19 alone; zcyto22 0.001 ng/ml (fold induction) [2]: 1.2 | ISRE-luciferase fold induction; BHK cells transfected with zcytoR19 alone; zcyto22 0.01 ng/ml (fold induction) [2]: 1.2 | ISRE-luciferase fold induction; BHK cells transfected with zcytoR19 alone; zcyto22 0.1 ng/ml (fold induction) [2]: 1.1 | ISRE-luciferase fold induction; BHK cells transfected with zcytoR19 alone; zcyto22 1 ng/ml (fold induction) [2]: 1.5 | ISRE-luciferase fold induction; BHK cells transfected with zcytoR19 alone; zcyto22 10 ng/ml (fold induction) [2]: 1.9 | ISRE-luciferase fold induction; BHK cells transfected with zcytoR19 alone; zcyto22 100 ng/ml (fold induction) [2]: 2 | ISRE-luciferase fold induction; BHK cells transfected with zcytoR19 alone; zcyto22 1000 ng/ml (fold induction) [2]: 1.8 | ISRE-luciferase fold induction; wild-type 293 cells; Zcyto22 0.01 ng/ml; + IL10Rb neutralizing antibody (8 ug/ml) (fold induction) [1]: 0.9 | ISRE-luciferase fold induction; wild-type 293 cells; Zcyto22 0.01 ng/ml; no antibody (fold induction) [1]: 0.9 | ISRE-luciferase fold induction; wild-type 293 cells; Zcyto22 0.1 ng/ml; + IL10Rb neutralizing antibody (8 ug/ml) (fold induction) [1]: 0.8 | ISRE-luciferase fold induction; wild-type 293 cells; Zcyto22 0.1 ng/ml; no antibody (fold induction) [1]: 1.2 | ISRE-luciferase fold induction; wild-type 293 cells; Zcyto22 1 ng/ml; + IL10Rb neutralizing antibody (8 ug/ml) (fold induction) [1]: 0.8 | ISRE-luciferase fold induction; wild-type 293 cells; Zcyto22 1 ng/ml; no antibody (fold induction) [1]: 1.8 | ISRE-luciferase fold induction; wild-type 293 cells; Zcyto22 10 ng/ml; + IL10Rb neutralizing antibody (8 ug/ml) (fold induction) [1]: 1 | ISRE-luciferase fold induction; wild-type 293 cells; Zcyto22 10 ng/ml; no antibody (fold induction) [1]: 8 | ISRE-luciferase fold induction; wild-type 293 cells; Zcyto22 100 ng/ml; + IL10Rb neutralizing antibody (8 ug/ml) (fold induction) [1]: 1.2 | ISRE-luciferase fold induction; wild-type 293 cells; Zcyto22 100 ng/ml; no antibody (fold induction) [1]: 11 | ISRE-luciferase fold induction; zcytoR19-overexpressing 293 cells; Zcyto22 0.01 ng/ml; + IL10Rb neutralizing antibody (8 ug/ml) (fold induction) [1]: 1.3 | ISRE-luciferase fold induction; zcytoR19-overexpressing 293 cells; Zcyto22 0.01 ng/ml; no antibody (fold induction) [1]: 1 | ISRE-luciferase fold induction; zcytoR19-overexpressing 293 cells; Zcyto22 0.1 ng/ml; + IL10Rb neutralizing antibody (8 ug/ml) (fold induction) [1]: 1.1 | ISRE-luciferase fold induction; zcytoR19-overexpressing 293 cells; Zcyto22 0.1 ng/ml; no antibody (fold induction) [1]: 8.4 | ISRE-luciferase fold induction; zcytoR19-overexpressing 293 cells; Zcyto22 1 ng/ml; + IL10Rb neutralizing antibody (8 ug/ml) (fold induction) [1]: 2.3 | ISRE-luciferase fold induction; zcytoR19-overexpressing 293 cells; Zcyto22 1 ng/ml; no antibody (fold induction) [1]: 69 | ISRE-luciferase fold induction; zcytoR19-overexpressing 293 cells; Zcyto22 10 ng/ml; + IL10Rb neutralizing antibody (8 ug/ml) (fold induction) [1]: 39 | ISRE-luciferase fold induction; zcytoR19-overexpressing 293 cells; Zcyto22 10 ng/ml; no antibody (fold induction) [1]: 97 | ISRE-luciferase fold induction; zcytoR19-overexpressing 293 cells; Zcyto22 100 ng/ml; + IL10Rb neutralizing antibody (8 ug/ml) (fold induction) [1]: 76 | ISRE-luciferase fold induction; zcytoR19-overexpressing 293 cells; Zcyto22 100 ng/ml; no antibody (fold induction) [1]: 82 | ISRE-luciferase fold induction; BHK cells transfected with zcytoR19 and IL10Rb (CRF2-4); zcyto22 0.001 ng/ml (fold induction) [3]: 1.3 | ISRE-luciferase fold induction; BHK cells transfected with zcytoR19 and IL10Rb (CRF2-4); zcyto22 0.01 ng/ml (fold induction) [3]: 1.7 | ISRE-luciferase fold induction; BHK cells transfected with zcytoR19 and IL10Rb (CRF2-4); zcyto22 0.1 ng/ml (fold induction) [3]: 2.4 | ISRE-luciferase fold induction; BHK cells transfected with zcytoR19 and IL10Rb (CRF2-4); zcyto22 1 ng/ml (fold induction) [3]: 2.7 | ISRE-luciferase fold induction; BHK cells transfected with zcytoR19 and IL10Rb (CRF2-4); zcyto22 10 ng/ml (fold induction) [3]: 2.7 | ISRE-luciferase fold induction; BHK cells transfected with zcytoR19 and IL10Rb (CRF2-4); zcyto22 100 ng/ml (fold induction) [3]: 2.2 | ISRE-luciferase fold induction; BHK cells transfected with zcytoR19 and IL10Rb (CRF2-4); zcyto22 1000 ng/ml (fold induction) [3]: 2.2
Substance: zcyto22 (ligand)

From patent EP1942187B1
